We go through one molecule from patent US6010856, “Assay systems and methods for measuring P38 map kinase, and modulators thereof” (The Scripps Research Institute).

For data set [1], the target named is MEF2C phosphorylated by p38 (UniProt Q06413-3 Q06413-3:1-441). As to the kind of experiment: EMSA; p38 phosphorylation did not reduce binding but decreased complex mobility. The following applies: tags: in vitro translated then treated with recombinant p38; label: 32P. An excerpt:
(§1) Members of the MEF2 family bind to conserved A/T-rich DNA sequences—CTA[A/T]_4TAG/A—found in the regulatory regions of many muscle-specific genes (Y. -T. Yu et al., Genes and Develop. 6, 1783 (1992). Binding of MEF2C to the consensus site can be detected by electrophoretic mobility-shift analysis (EMSA) (J. F. Martin et al., Proc. Natl. Acad. Sci. USA, 90, 5282 (1993); J. C. McDermott et al., Mol. Cell. Biol. 13, 2564 (1994); D. Leifer et al., Proc. Natl. Acad. Sci. USA 90, 11546 (1993)). To test whether the phosphorylation of MEF2C alters MEF2C binding to its consensus DNA binding site the mobility of the MEF2C-DNA probe complex formed by MEF2C before and after its treatment with wtp38 was compared (FIG. 3).
(§2) Binding of MEF2C to oligonucleotides containing the MEF2 consensus site determined by electrophoretic mobility-shift assay (EMSA). The oligonucleotide probe was double-stranded ^32P-labeled oligonucleotide containing the MEF2 consensus binding site (Oligonucleotides sequence, MEF2C: GATCGCT CTAAAAATAACCCTGTCG (SEQ ID NO: 1); MEF2Cmut: […] (SEQ ID NO: 2)) and the positions of free probe (F) and of bound probe (B_1 and B_2) are indicated by arrows. […]

The next data set concerns the target MEF2C (UniProt Q06413-3 Q06413-3:1-441). As to the kind of experiment: EMSA; complexes B1 and B2. The conditions noted are these: tags: in vitro translated from MEF2C cDNA; label: 32P.
Source text: as §1, §2

Sequence of MEF2C (Q06413 other isoform, or with tags, fused parts or gaps): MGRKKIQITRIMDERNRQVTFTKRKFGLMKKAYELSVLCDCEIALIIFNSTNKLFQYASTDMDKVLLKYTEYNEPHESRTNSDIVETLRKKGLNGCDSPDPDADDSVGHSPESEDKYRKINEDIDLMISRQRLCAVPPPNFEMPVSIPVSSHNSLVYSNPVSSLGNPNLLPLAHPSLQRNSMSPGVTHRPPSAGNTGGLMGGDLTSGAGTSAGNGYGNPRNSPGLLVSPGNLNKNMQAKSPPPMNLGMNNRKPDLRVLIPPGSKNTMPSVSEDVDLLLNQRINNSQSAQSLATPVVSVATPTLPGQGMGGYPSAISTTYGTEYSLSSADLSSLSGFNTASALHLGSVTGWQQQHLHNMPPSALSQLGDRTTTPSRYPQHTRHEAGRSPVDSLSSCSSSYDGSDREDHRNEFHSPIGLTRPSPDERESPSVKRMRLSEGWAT
Sequence of MEF2C phosphorylated by p38 (Q06413 other isoform, or with tags, fused parts or gaps): as above

B1: MEF2C consensus site probe (dsDNA)
DNA 1: GATCGCTCTAAAAATAACCCTGTCG
DNA 2: CGACAGGGTTATTTTTAGAGCGATC
Regarding B1, the binding result (in data set [1]; with MEF2C) was “binds” each time.
